Data as given in patent US20240174727A1, “LONG-ACTING NATRIURETIC PEPTIDES AND USES THEREOF” (Eli Lilly and Company, priority 2022, published 2024).
Numbered stars: 1 amine (or outer) side, 2 acyl side, 3 side chain; on linkers, the order of the positions; unused ones are H or OH. Bridge positions count the residues as written; N and C are the ends. Square brackets hold non-standard residues; d marks the D form. * marks the point of attachment. C20 diacid = O=C(O)CCCCCCCCCCCCCCCCCCC(=O)*; γGlu = O=C(O)[C@H](CCC(=O)[*:2])N[*:1]; 4Pal = N[C@@H](Cc1ccncc1)C(=O)O

B1: Example 9 (peptide)
peptide: {C20 diacid}-[γGlu]EKEKEKGSLRRSSCFGGRIDRIGAQSGLGCNSFR[4Pal]-NH2
modifications: disulfide 15-31
SMILES: CC[C@H](C)[C@@H]1NC(=O)[C@H](CCCNC(=N)N)NC(=O)[C@H](CC(=O)O)NC(=O)[C@H]([C@@H](C)CC)NC(=O)[C@H](CCCNC(=N)N)NC(=O)CNC(=O)CNC(=O)[C@H](Cc2ccccc2)NC(=O)[C@@H](NC(=O)[C@H](CO)NC(=O)[C@H](CO)NC(=O)[C@H](CCCNC(=N)N)NC(=O)[C@H](CCCNC(=N)N)NC(=O)[C@H](CC(C)C)NC(=O)[C@H](CO)NC(=O)CNC(=O)[C@H](CCCCN)NC(=O)[C@H](CCC(=O)O)NC(=O)[C@H](CCCCN)NC(=O)[C@H](CCC(=O)O)NC(=O)[C@H](CCCCN)NC(=O)[C@H](CCC(=O)O)NC(=O)CC[C@H](NC(=O)CCCCCCCCCCCCCCCCCCC(=O)O)C(=O)O)CSSC[C@@H](C(=O)N[C@@H](CC(N)=O)C(=O)N[C@@H](CO)C(=O)N[C@@H](Cc2ccccc2)C(=O)N[C@@H](CCCNC(=N)N)C(=O)N[C@@H](Cc2ccncc2)C(N)=O)NC(=O)CNC(=O)[C@H](CC(C)C)NC(=O)CNC(=O)[C@H](CO)NC(=O)[C@H](CCC(N)=O)NC(=O)[C@H](C)NC(=O)CNC1=O
B2: Example 10 (peptide)
peptide: {C20 diacid}-[γGlu]EKEKEKGSLRRSSCFGGRIDRIGA[4Pal]SGLGCNSFRY-NH2
modifications: disulfide 15-31
SMILES: CC[C@H](C)[C@@H]1NC(=O)[C@H](CCCNC(=N)N)NC(=O)[C@H](CC(=O)O)NC(=O)[C@H]([C@@H](C)CC)NC(=O)[C@H](CCCNC(=N)N)NC(=O)CNC(=O)CNC(=O)[C@H](Cc2ccccc2)NC(=O)[C@@H](NC(=O)[C@H](CO)NC(=O)[C@H](CO)NC(=O)[C@H](CCCNC(=N)N)NC(=O)[C@H](CCCNC(=N)N)NC(=O)[C@H](CC(C)C)NC(=O)[C@H](CO)NC(=O)CNC(=O)[C@H](CCCCN)NC(=O)[C@H](CCC(=O)O)NC(=O)[C@H](CCCCN)NC(=O)[C@H](CCC(=O)O)NC(=O)[C@H](CCCCN)NC(=O)[C@H](CCC(=O)O)NC(=O)CC[C@H](NC(=O)CCCCCCCCCCCCCCCCCCC(=O)O)C(=O)O)CSSC[C@@H](C(=O)N[C@@H](CC(N)=O)C(=O)N[C@@H](CO)C(=O)N[C@@H](Cc2ccccc2)C(=O)N[C@@H](CCCNC(=N)N)C(=O)N[C@@H](Cc2ccc(O)cc2)C(N)=O)NC(=O)CNC(=O)[C@H](CC(C)C)NC(=O)CNC(=O)[C@H](CO)NC(=O)[C@H](Cc2ccncc2)NC(=O)[C@H](C)NC(=O)CNC1=O
B3: Example 11 (peptide)
peptide: XEKEKEKGSXRRSSCFGGRIDRIGAQSGLGCNSFRY
modifications: HOOC-(CH2)18-CO-(γGlu)-EKEKEKGS-4Pal-RRSS[CFGGRIDRIGAQSGLGC]NSFRY-NH2; disulfide linkage between the bracketed Cys
B4: Example 12 (peptide)
peptide: {C20 diacid}-[γGlu]EKEKEKGSLRRSSCFGGRIDRIGA[4Pal]SGLGCNSFR[4Pal]-NH2
modifications: disulfide 15-31
SMILES: CC[C@H](C)[C@@H]1NC(=O)[C@H](CCCNC(=N)N)NC(=O)[C@H](CC(=O)O)NC(=O)[C@H]([C@@H](C)CC)NC(=O)[C@H](CCCNC(=N)N)NC(=O)CNC(=O)CNC(=O)[C@H](Cc2ccccc2)NC(=O)[C@@H](NC(=O)[C@H](CO)NC(=O)[C@H](CO)NC(=O)[C@H](CCCNC(=N)N)NC(=O)[C@H](CCCNC(=N)N)NC(=O)[C@H](CC(C)C)NC(=O)[C@H](CO)NC(=O)CNC(=O)[C@H](CCCCN)NC(=O)[C@H](CCC(=O)O)NC(=O)[C@H](CCCCN)NC(=O)[C@H](CCC(=O)O)NC(=O)[C@H](CCCCN)NC(=O)[C@H](CCC(=O)O)NC(=O)CC[C@H](NC(=O)CCCCCCCCCCCCCCCCCCC(=O)O)C(=O)O)CSSC[C@@H](C(=O)N[C@@H](CC(N)=O)C(=O)N[C@@H](CO)C(=O)N[C@@H](Cc2ccccc2)C(=O)N[C@@H](CCCNC(=N)N)C(=O)N[C@@H](Cc2ccncc2)C(N)=O)NC(=O)CNC(=O)[C@H](CC(C)C)NC(=O)CNC(=O)[C@H](CO)NC(=O)[C@H](Cc2ccncc2)NC(=O)[C@H](C)NC(=O)CNC1=O
B5: Example 13 (peptide)
peptide: {C20 diacid}-[γGlu]EKEKEKGSLRRSSCF[4Pal]GRIDRIGAQSGLGCNSFRY-NH2
modifications: disulfide 15-31
SMILES: CC[C@H](C)[C@@H]1NC(=O)[C@H](CCCNC(=N)N)NC(=O)[C@H](CC(=O)O)NC(=O)[C@H]([C@@H](C)CC)NC(=O)[C@H](CCCNC(=N)N)NC(=O)CNC(=O)[C@H](Cc2ccncc2)NC(=O)[C@H](Cc2ccccc2)NC(=O)[C@@H](NC(=O)[C@H](CO)NC(=O)[C@H](CO)NC(=O)[C@H](CCCNC(=N)N)NC(=O)[C@H](CCCNC(=N)N)NC(=O)[C@H](CC(C)C)NC(=O)[C@H](CO)NC(=O)CNC(=O)[C@H](CCCCN)NC(=O)[C@H](CCC(=O)O)NC(=O)[C@H](CCCCN)NC(=O)[C@H](CCC(=O)O)NC(=O)[C@H](CCCCN)NC(=O)[C@H](CCC(=O)O)NC(=O)CC[C@H](NC(=O)CCCCCCCCCCCCCCCCCCC(=O)O)C(=O)O)CSSC[C@@H](C(=O)N[C@@H](CC(N)=O)C(=O)N[C@@H](CO)C(=O)N[C@@H](Cc2ccccc2)C(=O)N[C@@H](CCCNC(=N)N)C(=O)N[C@@H](Cc2ccc(O)cc2)C(N)=O)NC(=O)CNC(=O)[C@H](CC(C)C)NC(=O)CNC(=O)[C@H](CO)NC(=O)[C@H](CCC(N)=O)NC(=O)[C@H](C)NC(=O)CNC1=O
B6: Example 14 (peptide)
peptide: {C20 diacid}-[γGlu]EKEKEKGS[4Pal]RRSSCFGGRIDRIGA[4Pal]SGLGCNSFRY-NH2
modifications: disulfide 15-31
SMILES: CC[C@H](C)[C@@H]1NC(=O)[C@H](CCCNC(=N)N)NC(=O)[C@H](CC(=O)O)NC(=O)[C@H]([C@@H](C)CC)NC(=O)[C@H](CCCNC(=N)N)NC(=O)CNC(=O)CNC(=O)[C@H](Cc2ccccc2)NC(=O)[C@@H](NC(=O)[C@H](CO)NC(=O)[C@H](CO)NC(=O)[C@H](CCCNC(=N)N)NC(=O)[C@H](CCCNC(=N)N)NC(=O)[C@H](Cc2ccncc2)NC(=O)[C@H](CO)NC(=O)CNC(=O)[C@H](CCCCN)NC(=O)[C@H](CCC(=O)O)NC(=O)[C@H](CCCCN)NC(=O)[C@H](CCC(=O)O)NC(=O)[C@H](CCCCN)NC(=O)[C@H](CCC(=O)O)NC(=O)CC[C@H](NC(=O)CCCCCCCCCCCCCCCCCCC(=O)O)C(=O)O)CSSC[C@@H](C(=O)N[C@@H](CC(N)=O)C(=O)N[C@@H](CO)C(=O)N[C@@H](Cc2ccccc2)C(=O)N[C@@H](CCCNC(=N)N)C(=O)N[C@@H](Cc2ccc(O)cc2)C(N)=O)NC(=O)CNC(=O)[C@H](CC(C)C)NC(=O)CNC(=O)[C@H](CO)NC(=O)[C@H](Cc2ccncc2)NC(=O)[C@H](C)NC(=O)CNC1=O

Biological target: T1, human NPRA (human, UniProt P16066 33-1061)
T1 sequence (looked up): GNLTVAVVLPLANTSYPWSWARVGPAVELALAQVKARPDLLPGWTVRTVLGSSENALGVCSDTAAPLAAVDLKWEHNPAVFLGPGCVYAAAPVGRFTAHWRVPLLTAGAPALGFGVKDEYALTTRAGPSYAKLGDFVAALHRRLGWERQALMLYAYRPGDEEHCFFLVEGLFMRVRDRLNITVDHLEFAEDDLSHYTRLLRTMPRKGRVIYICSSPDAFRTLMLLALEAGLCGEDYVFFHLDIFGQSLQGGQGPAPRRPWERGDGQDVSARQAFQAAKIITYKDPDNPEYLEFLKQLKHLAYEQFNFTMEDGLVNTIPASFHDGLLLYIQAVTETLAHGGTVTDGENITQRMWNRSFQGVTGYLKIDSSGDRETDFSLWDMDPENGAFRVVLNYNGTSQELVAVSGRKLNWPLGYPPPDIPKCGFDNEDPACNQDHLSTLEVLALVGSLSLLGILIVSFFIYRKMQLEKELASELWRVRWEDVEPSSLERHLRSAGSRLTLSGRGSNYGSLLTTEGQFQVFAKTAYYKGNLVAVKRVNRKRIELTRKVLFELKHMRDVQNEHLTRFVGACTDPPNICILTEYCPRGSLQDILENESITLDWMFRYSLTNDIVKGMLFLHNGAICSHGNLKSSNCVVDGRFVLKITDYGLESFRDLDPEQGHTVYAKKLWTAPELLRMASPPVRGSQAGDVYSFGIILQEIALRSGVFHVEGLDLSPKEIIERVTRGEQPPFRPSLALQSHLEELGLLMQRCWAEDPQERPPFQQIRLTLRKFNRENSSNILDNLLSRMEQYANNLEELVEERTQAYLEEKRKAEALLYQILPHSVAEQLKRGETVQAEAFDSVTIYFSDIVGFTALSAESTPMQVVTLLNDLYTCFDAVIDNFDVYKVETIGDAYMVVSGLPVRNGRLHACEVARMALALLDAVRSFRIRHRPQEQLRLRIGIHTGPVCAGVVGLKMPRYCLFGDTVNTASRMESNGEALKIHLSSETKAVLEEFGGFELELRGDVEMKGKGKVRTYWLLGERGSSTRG
Assay: cell-based or functional assay

Binder | cGMP Assay (EC50, pM) w/BSA [pM] | cGMP Assay (EC50, pM) w/Casein [pM]
B1 | 100000 | 1870
B2 | 64200 | 1310
B3 | 24400 | 1020
B4 | 109000 | 1520
B5 | 145000 | 1920
B6 | 27700 | 685

Biological target: T2, rat NPRA (rat, UniProt P18910 29-1057)
T2 sequence (looked up): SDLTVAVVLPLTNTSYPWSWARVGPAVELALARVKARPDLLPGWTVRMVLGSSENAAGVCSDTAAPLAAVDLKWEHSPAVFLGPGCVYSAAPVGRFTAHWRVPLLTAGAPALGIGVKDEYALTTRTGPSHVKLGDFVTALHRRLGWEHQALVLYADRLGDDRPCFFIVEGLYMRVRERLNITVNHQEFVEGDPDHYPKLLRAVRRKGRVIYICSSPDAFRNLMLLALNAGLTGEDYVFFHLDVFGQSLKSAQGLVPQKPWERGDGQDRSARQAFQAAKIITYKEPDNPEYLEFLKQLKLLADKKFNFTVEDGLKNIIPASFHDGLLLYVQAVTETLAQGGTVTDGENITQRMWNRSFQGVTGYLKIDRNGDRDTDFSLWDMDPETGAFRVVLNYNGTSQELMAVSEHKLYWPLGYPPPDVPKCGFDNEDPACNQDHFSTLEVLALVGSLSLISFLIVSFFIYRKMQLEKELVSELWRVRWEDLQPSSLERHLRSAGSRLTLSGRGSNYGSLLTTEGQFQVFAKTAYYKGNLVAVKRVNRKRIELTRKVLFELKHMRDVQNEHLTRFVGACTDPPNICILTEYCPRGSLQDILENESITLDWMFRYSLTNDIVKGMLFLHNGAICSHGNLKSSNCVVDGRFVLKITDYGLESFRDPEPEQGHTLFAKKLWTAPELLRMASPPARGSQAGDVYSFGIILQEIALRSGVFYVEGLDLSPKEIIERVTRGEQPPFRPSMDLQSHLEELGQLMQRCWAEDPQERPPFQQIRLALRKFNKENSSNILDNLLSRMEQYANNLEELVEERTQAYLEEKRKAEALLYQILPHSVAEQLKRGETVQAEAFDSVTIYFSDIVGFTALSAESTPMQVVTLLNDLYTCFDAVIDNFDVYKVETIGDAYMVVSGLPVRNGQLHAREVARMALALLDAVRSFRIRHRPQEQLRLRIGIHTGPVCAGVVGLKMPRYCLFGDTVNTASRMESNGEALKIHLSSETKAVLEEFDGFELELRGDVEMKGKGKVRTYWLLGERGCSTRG
Assay: cell-based or functional assay

Binder | cGMP Assay (EC50, pM) w/BSA [pM] | cGMP Assay (EC50, pM) w/Casein [pM]
B1 | 46700 | 509
B2 | 88400 | 501
B3 | 24700 | 242
B4 | 85500 | 670
B5 | 24000 | 241
B6 | 37800 | 1170
